Source: patent US7736875B2, “Dipeptidyl peptidase I crystal structure and its uses” (Prozymex A/S, priority 2000, dated 2010)

Key:
DPPI transferase assay = format: biochemical, rat; conditions: FIG. 8
Excerpt: The rate of transfer of dipeptides from a donor peptide to the nucleophilic amino terminus of an acceptor peptide, the ratio of dipeptide transfer to hydrolysis and the stability of elongated peptide product to hydrolytic turnover are estimated in a transferase assay.
In these reactions, X and Y are any amino acid residue with the exception of prolyl. X is preferably Phe and Y is preferably Arg or Lys and pNA is a para-nitroanilide group. H and COOH indicate unblocked peptide amino and carboxy termini, respectively. In the transferase reaction, DPPI catalyses the transpeptidation of dipeptide H-Pro-X from the peptide amide to the free amino group of residue Y. The dipeptide can not be transferred to a second H-Pro-X-NH2 molecule because of the N-terminal Pro residue. The progress of the transpeptidation reaction is monitored in the trypsin cleavage reaction, in which produced H-Pro-X-Y-pNA tripeptide is hydrolysed following the addition of trypsin endoprotease to an aliquot of reaction mixture. Trypsin hydrolyses H-Pro-X-Arg/Lys-pNA much more rapidly than H-Arg/Lys-pNA (low aminopeptidase activity) making it possible to determine the amount of tripeptide formed. The transferase reaction is essentially stopped upon addition of trypsin because the reactants are diluted 10-fold (resulting in an approximately 100-fold lower rate) and because DPPI is unstable at pH 8.3.
The concentration of tripeptide obtained also depends on the rates of hydrolysis of the initial substrate (Hydrolysis reaction 1) and of the tripeptide (Hydrolysis reaction 2):
The hydrolysed peptides […] and […] are not DPPI substrates and can no longer be used in peptide synthesis. Accordingly, the peptidase activity of DPPI degrades both the trypsin substrate (before trypsin is added to the reaction mixture) and one of its precursors.
20 μl of DPPI (1-50 U/ml) in 20 mM Tris-HCl or sodium phosphate-NaOH buffer pH 7.5 is mixed with 20 μl 20 mM dithiothreitol (DTT) and allowed to incubate for 30 min at 5-37° C., preferably 12° C. Meanwhile, 10 μl 400 mM H-Pro-X-NH2 and 10 μl 500 mM H-Y-pNA (both in 100% dimethyl formamide) and 140 μl […] Tris-HCl or sodium phosphate-NaOH buffer, pH 7.5 are mixed and incubated at the same temperature. The transferase and hydrolysis reactions are initiated by the addition of reduced and activated DPPI to the peptide mixture (same temperature). All reaction mixtures should include a minimum of 10 mM chloride.
The progress of the reaction is followed by mixing 10 μl aliquots with 1 μM trypsin in 0.1 M Tris-HCl buffer pH 8.3 and at 5-37° C., preferably 20-37° C. A yellow colour quickly appears. After 10 min, 1000 μl of water are added and the absorbance at 405 nm is measured against an appropriate blank.

[1] = tested on: one or more cysteine peptidases present in the eluates of the Butyl SEPHAROSE FF column; experiment: Proteolytic processing of immature DPPI peptides in Butyl Sepharose FF eluate (SDS-PAGE); format: biochemical; conditions: eluate incubated at pH 4.5, 4° C.
Description: DPPI eluted from the hydrofobic interaction column was in general only partially processed to the mature, active form. To complete the processing, the eluate was incubated at pH 4.5 and 4° C. for 18-40 hours to convert the immature peptides to the peptides of mature rrDPPI or rhDPPI. […] Furthermore, the rate of processing was dependent on the pH of the buffer during incubation. No conversion of the immature peptides could be observed at pH 7.0 as determined by SDS-PAGE analysis but processing was observed when incubation was performed at pH 6.5 or below. The processing proceeded at highest rate at about pH 4.5. The fully processed rhDPPI and rrDPPI were finally purified and concentrated on Q-SEPHAROSE™ FF as described above. Recombinant hDPPI was quantified using an extinction coefficient at 280 nm of 2.0.

Molecule: N226S229:Q226N229: rat DPPI active site double mutant Asn226:Ser229 to Gln226:Asn229
- stability of the produced tripeptide product in presence of the variant (DPPI transferase assay): much more stable
- transferase activity versus hydrolytic activity (maximum level of tripeptide) (DPPI transferase assay): favoured over the hydrolytic activity
- rate of generation of the tripeptide substrate (DPPI transferase assay; compared with wild type and D274Q): nearly as fast as the other two variants

Molecule: D274Q: rat DPPI active site mutant Asp274 to Gln274
- influence of mutation on rat DPPI transferase activity (DPPI transferase assay; versus wild type rat DPPI): no favourable influence

Molecule: CC(C)C[C@H](NC(=O)[C@H]1O[C@@H]1C(=O)O)C(=O)NCCCCN=C(N)N [E-64, reference compound]
- proteolytic processing of the immature peptides to mature rrDPPI or rhDPPI ([1]; addition of 1 μM E-64): completely blocked

B1: chicken cystatin: non-covalent protein inhibitor of cysteine peptidases of the cystatin family (protein, UniProt P01038 24-139, looked up)
Cystatin: SEDRSRLLGAPVPVDENDEGLQRALQFAMAEYNRASNDKYSSRVVRVISAKRQLVSGIKYILQVEIGRTTCPKSSGDLQSCEFHDEPEMAKYTTCTFVVYSIPWLNQIKLLESKCQ
- proteolytic processing of the immature peptides to mature rrDPPI or rhDPPI ([1]; addition of 0.1 μM chicken cystatin): completely blocked
